Experimental data: patent US20190077860A1 (EISAI R AND D MANAGEMENT, published 2019)

T1: human EphA7 extracellular region-SEAP-His protein (human, UniProt Q15375 28-555)
T1 construct: extracellular domain; also called hEphA7-SEAP-His
T1 sequence (looked up): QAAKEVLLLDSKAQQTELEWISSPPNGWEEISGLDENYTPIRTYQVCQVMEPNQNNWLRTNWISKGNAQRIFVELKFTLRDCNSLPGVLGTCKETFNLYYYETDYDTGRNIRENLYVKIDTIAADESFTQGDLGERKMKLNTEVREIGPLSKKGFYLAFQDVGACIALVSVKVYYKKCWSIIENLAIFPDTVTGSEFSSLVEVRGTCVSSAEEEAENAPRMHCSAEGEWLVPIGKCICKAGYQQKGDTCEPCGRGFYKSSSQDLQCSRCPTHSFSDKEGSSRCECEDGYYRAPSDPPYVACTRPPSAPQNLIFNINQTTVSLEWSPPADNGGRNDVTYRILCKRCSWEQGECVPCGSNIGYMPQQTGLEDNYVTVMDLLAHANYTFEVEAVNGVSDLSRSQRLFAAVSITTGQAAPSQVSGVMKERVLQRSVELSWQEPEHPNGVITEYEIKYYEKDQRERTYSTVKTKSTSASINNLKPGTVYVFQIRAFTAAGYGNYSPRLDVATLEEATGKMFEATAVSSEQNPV

T2: human EphB4 extracellular region-SEAP-His protein (human, UniProt P54760 16-539)
T2 construct: extracellular domain; also called hEphB4-SEAP-His
T2 sequence (looked up): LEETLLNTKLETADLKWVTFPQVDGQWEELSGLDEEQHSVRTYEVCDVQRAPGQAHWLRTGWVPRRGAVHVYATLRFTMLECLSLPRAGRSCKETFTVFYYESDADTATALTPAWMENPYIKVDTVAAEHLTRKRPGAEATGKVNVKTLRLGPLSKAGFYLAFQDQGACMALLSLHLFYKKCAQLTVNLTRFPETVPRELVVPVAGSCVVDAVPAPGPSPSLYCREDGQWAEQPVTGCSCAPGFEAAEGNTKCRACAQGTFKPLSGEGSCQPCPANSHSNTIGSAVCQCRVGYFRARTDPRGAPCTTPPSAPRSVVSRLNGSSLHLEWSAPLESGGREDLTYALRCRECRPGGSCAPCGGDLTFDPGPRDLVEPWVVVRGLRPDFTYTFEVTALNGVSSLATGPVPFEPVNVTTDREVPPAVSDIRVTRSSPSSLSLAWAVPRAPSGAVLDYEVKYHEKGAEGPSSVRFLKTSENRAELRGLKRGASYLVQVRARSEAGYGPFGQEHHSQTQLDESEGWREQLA


Legend:
[1] = biological target: T1, human EphA7 extracellular …; assay: ELISA
[2] = biological target: T2, human EphB4 extracellular …; assay: ELISA

Row | A450 as % of hEphA4-SEAP-His [1] | A450 as % of hEphA4-SEAP-His [2] | Binder
1 | 4.8% | 5.2% | humanized antibody No. 76 (antibody, human IgG1, kappa, human Ig kappa; also called L1-4/HA2) heavy: QVQLVQSGSELKKPGASVKVSCKASGYTFTDYSMHWVRQAPGQGLKWMGWINTETGEPTYAQGFTGRFVFSLDTSVSTAYLQISSLKAEDTAVYYCARIPLYYYGSRYWYFDVWGQGTTVTVSSASTKGPSVFPLAPSSKSTSGGTAALGCLVKDYFPEPVTVSWNSGALTSGVHTFPAVLQSSGLYSLSSVVTVPSSSLGTQTYICNVNHKPSNTKVDKRVEPKSCDKTHTCPPCPAPPAAAPSVFLFPPKPKDTLMISRTPEVTCVVVDVSHEDPEVQFNWYVDGVEVHNAKTKPREEQFNSTFRVVSVLTVVHQDWLNGKEYKCKVSNKGLPAPIEKTISKTKGQPREPQVYTLPPSREEMTKNQVSLTCLVKGFYPSDIAVEWESNGQPENNYKTTPPMLDSDGSFFLYSKLTVDKSRWQQGNVFSCSVMHEALHNHYTQKSLSLSPG light: DIQMTQSPSSLSASVGDRVTITCRASENIYRNLAWYQQKPGKAPKLLVYAATNLADGVPSRFSGSGSGTDYTLTISSLQPEDFATYYCQHFWGTPWTFGQGTKVEIKRTVAAPSVFIFPPSDEQLKSGTASVVCLLNNFYPREAKVQWKVDNALQSGNSQESVTEQDSKDSTYSLSSTLTLSKADYEKHKVYACEVTHQGLSSPVTKSFNRGEC
2 | 5.3% | 5.5% | humanized antibody No. 69 (antibody, human IgG1, kappa, human Ig kappa; also called L1-4/HK4) heavy: QIQLVQSGSELKKPGASVKVSCKASGYTFTDYSMHWVRQAPGQGLKWMGWINTETGEPTYADDFKGRFVFSLDTSVSTAYLQISSLKAEDTAVYYCARIPLYYYGSRYWYFDVWGQGTTVTVSSASTKGPSVFPLAPSSKSTSGGTAALGCLVKDYFPEPVTVSWNSGALTSGVHTFPAVLQSSGLYSLSSVVTVPSSSLGTQTYICNVNHKPSNTKVDKRVEPKSCDKTHTCPPCPAPPAAAPSVFLFPPKPKDTLMISRTPEVTCVVVDVSHEDPEVQFNWYVDGVEVHNAKTKPREEQFNSTFRVVSVLTVVHQDWLNGKEYKCKVSNKGLPAPIEKTISKTKGQPREPQVYTLPPSREEMTKNQVSLTCLVKGFYPSDIAVEWESNGQPENNYKTTPPMLDSDGSFFLYSKLTVDKSRWQQGNVFSCSVMHEALHNHYTQKSLSLSPG light: DIQMTQSPSSLSASVGDRVTITCRASENIYRNLAWYQQKPGKAPKLLVYAATNLADGVPSRFSGSGSGTDYTLTISSLQPEDFATYYCQHFWGTPWTFGQGTKVEIKRTVAAPSVFIFPPSDEQLKSGTASVVCLLNNFYPREAKVQWKVDNALQSGNSQESVTEQDSKDSTYSLSSTLTLSKADYEKHKVYACEVTHQGLSSPVTKSFNRGEC
3 | 4.7% | 4.9% | humanized antibody No. 67 (antibody, human IgG1, kappa, human Ig kappa; also called L1-4/HA4) heavy: QIQLVQSGSELKKPGASVKVSCKASGYTFTDYSMHWVRQAPGQGLKWMGWINTETGEPTYAQGFTGRFVFSLDTSVSTAYLQISSLKAEDTAVYYCARIPLYYYGSRYWYFDVWGQGTTVTVSSASTKGPSVFPLAPSSKSTSGGTAALGCLVKDYFPEPVTVSWNSGALTSGVHTFPAVLQSSGLYSLSSVVTVPSSSLGTQTYICNVNHKPSNTKVDKRVEPKSCDKTHTCPPCPAPPAAAPSVFLFPPKPKDTLMISRTPEVTCVVVDVSHEDPEVQFNWYVDGVEVHNAKTKPREEQFNSTFRVVSVLTVVHQDWLNGKEYKCKVSNKGLPAPIEKTISKTKGQPREPQVYTLPPSREEMTKNQVSLTCLVKGFYPSDIAVEWESNGQPENNYKTTPPMLDSDGSFFLYSKLTVDKSRWQQGNVFSCSVMHEALHNHYTQKSLSLSPG light: DIQMTQSPSSLSASVGDRVTITCRASENIYRNLAWYQQKPGKAPKLLVYAATNLADGVPSRFSGSGSGTDYTLTISSLQPEDFATYYCQHFWGTPWTFGQGTKVEIKRTVAAPSVFIFPPSDEQLKSGTASVVCLLNNFYPREAKVQWKVDNALQSGNSQESVTEQDSKDSTYSLSSTLTLSKADYEKHKVYACEVTHQGLSSPVTKSFNRGEC
